Experiments:
Assay in all cases: ITC
[1] = molecular target: T1, SEC62^355–376 peptide, Q99442; conditions: chain shown with the change
T1 chain: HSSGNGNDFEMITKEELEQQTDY

[2] = molecular target: T2, FAM134B^444–470 peptide, Q9H6L5; conditions: chain shown with the change
T2 chain: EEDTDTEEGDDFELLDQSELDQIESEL

[3] = molecular target: T3, Atg8 (1-116) K26P, P38182; conditions: chain shown with the change; Atg8 (1.8 mM)
T3 chain: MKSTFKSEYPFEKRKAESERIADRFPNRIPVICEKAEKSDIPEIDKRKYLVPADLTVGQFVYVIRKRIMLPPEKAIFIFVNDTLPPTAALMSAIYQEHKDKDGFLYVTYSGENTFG

[4] = molecular target: human GABARAP (1-116), O95166; conditions: chain shown with the change

B1: human GABARAP (1-116), O95166 R67A (protein)
chain: MKFVYKEEHPFEKRRSEGEKIRKKYPDRVPVIVEKAPKARIGDLDKKKYLVPSDLTVGQFYFLIRKAIHLRAEDALFFFVNNVIPPTSATMGQLYQEHHEEDFFLYIAYSDESVYG
[1]
  Kd: 9.43 µM
[2]
  Kd: 1.88 µM

## EFPNDYAFMEAILDET [Atg40^237–252 peptide, Q99325 D243A; D247A]
[3]
  Kd: 83.3 µM

## GPEEDTDTEEGDDAELLDQSELDQIESELY [FAM134B^444–470 peptide, Q9H6L5 F455A]
[4]
  Kd: 3.55 µM

## GPHSSGNGNDFAMITKEALEQQTDY [SEC62^355–376 peptide, Q99442 E364A; E370A]
[4]
  Kd: 35.1 µM

— PMC7335187, “Super-assembly of ER-phagy receptor Atg40 induces local ER remodeling at contacts with forming autophagosomal membranes” (Nature Communications, 2020)
